{
  "source": "the domain aggregation screens of Martell et al. (2025)",
  "data": [
    {"test": "soluble fraction after stress (log2 fold change); higher = more stays soluble; pooled small domains, quantitative proteomics", "details": "stress: 50 degC", "summary_of_the_method": "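Pooled custom libraries of small protein domains were each held under stress at 50°C. The read-out, high-throughput quantitative proteomics, tracked how much of each protein stayed soluble. This is reported as a base-two log fold change used to indicate aggregation propensity. Higher values mean more protein remains in solution.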", "values": [
      {"sequence": "HMLPYKGTVAVSLAVLHKAVGVGTADMLKAVGTLRQGTEVTVTGRNGPFAQLKNGLWMKESFLE", "soluble fraction (log2)": -1.04},
      {"sequence": "HMVKIIHYEVYANRGDGWKLVDQFSADQRQEAVNLAKEIETEDQVAVKIIREIFDVQDNTYQESVEYIG", "soluble fraction (log2)": -0.51},
      {"sequence": "HMPIDNTLLSRITSLGVSTTEAEKLISKHGEEALKANLEVVEERLSKPNLPLLDSPAAYLKTALKNG", "soluble fraction (log2)": 0.318},
      {"sequence": "HMRQSQEVSGGERYRRLTAYLDTHPFITRKEYSGITGLLKNKALNDLNLLVNKGYLEAMGRGSHKVYVRPM", "soluble fraction (log2)": -0.424},
      {"sequence": "HMSREEFLAGLEEALAGEVPASVIRENLNYYNSYISQEMAKGRTVDEIVDEIGEPRIVARTIIDSSEAAGE", "soluble fraction (log2)": 0.0724},
      {"sequence": "HMSIAEMSGARKSAILLLALDEDSAAEIFKYLSAGEVQEISMEMAKLNQVSHDDMKAVLEAFHKETEEFV", "soluble fraction (log2)": -0.542},
      {"sequence": "HMPSLGGLLALLKRNRKPDAMEALDRLISKEDRPETAEALENIREKVRNMQMREAEGLLLALMEP", "soluble fraction (log2)": -0.0372},
      {"sequence": "HMAAEELTVDKILTAQSFGVTAEAILAKVNDPANTVATLTQADVDRLRAAGVPEGVVTALQARAPQ", "soluble fraction (log2)": 0.0975},
      {"sequence": "HMATFTPYLVRITASVLNIRKGPGTTYAVTGQIKDRGVYTIVEQKGNWGRLKSGAGWISLSYTKK", "soluble fraction (log2)": -3.12},
      {"sequence": "HMSLQNTMANFAGGVLVLFLKPFKAGDYIVTKDGEGTVASIGLVYTTLLTIENKRIVIPNSSISNSPITN", "soluble fraction (log2)": 0.0055},
      {"sequence": "HMSSQWWYSAGGERKGPVDFATLRGLYVQGAIDGRTLAWREDMQGWEAVNDIPDLEPLRRAVPPEL", "soluble fraction (log2)": -0.0348},
      {"sequence": "HMAQELPYEKVTMNGKMFYVYHVKAGEGLYLISRTFSVNADEILKFNPSIENGLKSGQVLYIPIK", "soluble fraction (log2)": -0.0691},
      {"sequence": "HMKEQYTELDWDKVQVNDKVMIKDLNQQVTILSLPDKNNALYIQMGMIKTKVKKEKLAVYNPQLA", "soluble fraction (log2)": -0.185},
      {"sequence": "HMRDAKSQLQEALQKSGRLPEYELVSVEGPPHAPVFTYRVRIDGAVVGEGQGASKQAAQQAAAQSALKSG", "soluble fraction (log2)": 0.145},
      {"sequence": "HMQPASPELNNQEKKVLQALPENEVIHIDELSDKIQIPVGELLTVLLSLEMKETVIQEPGKFFRRR", "soluble fraction (log2)": -1.28},
      {"sequence": "HMAPQVKIPNLVDVSQRQAEAILNSYGLKVGHLIYKPDLAKDAVLGFMFNGRSLKAGDELAKGSSIDLILG", "soluble fraction (log2)": -0.097},
      {"sequence": "HMKYEFEFPYWSNKEAKHMIVTINYPNGTRATASIQDNDGSNPDYKRIMEEFGEEQIDANTEEGLKRR", "soluble fraction (log2)": -0.0595},
      {"sequence": "HMYPFSEETLKEKIREYLKTNRSINRRVLEREFYIRKQTALNWLNRLVDSGFLIKEGVRNSPVYFLAE", "soluble fraction (log2)": -0.691},
      {"sequence": "HMSQTDTDAKDARQKILALLSDGEWHQKTELLKIDAPKEAVSNAIRYLVLEELISIDHAKVRA", "soluble fraction (log2)": -0.489},
      {"sequence": "HMHEIVDTVLQVKQSVEADPLIAPALKNKEIVFQLNAKGVFQFKNAVIQVASALGISKNTVYMHLRNNK", "soluble fraction (log2)": -1.89},
      {"sequence": "HMNYLDVNIPVTSAVWMGKQLPEMGTLIYLTPDKDVEGMLFIKQATKDKPDGEYIEAKVLGYKEGRVLFDF", "soluble fraction (log2)": -0.547},
      {"sequence": "HMGRELSDLELSLLRILDDKIPLLIDEAADRLQLPVAQVLSAVTIMEIDGLIRREGMRKYLRTVEVEETK", "soluble fraction (log2)": -0.499},
      {"sequence": "HMNKNNLRNVSSKIRKSRRVLNLSQAELSKKLDISPSYLNLIESGKRPITVPLLIKLGNILGISLKDL", "soluble fraction (log2)": -1.27},
      {"sequence": "HMDNEYDKVYQAALSKLEGYPRSSITTAVIKDVVAQTIKYFEIKNFGYEDTIINQLQSAFTVKSSS", "soluble fraction (log2)": -0.0856},
      {"sequence": "HMSEMDNMEWVREQYFQNMIYEIGEWVRDKKTGIVGEVVKRGTNYVTVVQEDFSLHKIWLEDLETTEK", "soluble fraction (log2)": -0.821},
      {"sequence": "HMPETAQLTDIQVSRSQAHTGIFSLHYYLTGTDSRGERVRLEISGDDYTRLSGSSSVTVEYYRHTGRIVRY", "soluble fraction (log2)": -1.55},
      {"sequence": "HMNDQLIYSDFIRQVQDGQITEVTISGLNIAGTRSDGSVFNTLRPYIEDPKLIDDLLSHNVRIQGAE", "soluble fraction (log2)": -0.2},
      {"sequence": "HMKSIETVAELVAELKKLNPNAKISNIDGTYTLEEDINTITLPKDFKYDNNLGINNKIDDFTPYISLDVKA", "soluble fraction (log2)": 0.41},
      {"sequence": "HMLKDQSIAQLEKNLDDLKGLMRKMFGSSDVPKITKMISDIESSLANFNQSKANKLIVQTTNYISSKL", "soluble fraction (log2)": -0.36},
      {"sequence": "HMTTQTGTVKWFNEGKGFGFIAPDDGGKDLFAHFKEIQGTGFKTLAENQRVEFEVTQGQKGPQASKI", "soluble fraction (log2)": -0.0807},
      {"sequence": "HMSYLDTLPGRRVAAQGAITGDAGTLAVDGDTWSARVEPGAPDVAPGDEVTVLRIDGATLVVRPLP", "soluble fraction (log2)": -0.0478},
      {"sequence": "HMPLNAFDVAGYRLGYGGGYFDRTLAALSPRPLAVGVGFEINRLESIRPEAHDQRLDWIVTENGAFRPA", "soluble fraction (log2)": -0.867},
      {"sequence": "HMDAEKHIVTPEAGLRLDRALTDALPNLSRSRVKQLINEGLVTTENKTITAPSYRVKYGDSFEISIPPPT", "soluble fraction (log2)": -0.0636},
      {"sequence": "HMGRKPVSPEIVERVLQLAKSNPDWGYEHIAGTMRYLGYNVSATTIRHILEANGIVPDPERRL", "soluble fraction (log2)": -0.128},
      {"sequence": "HMGKEDISQINKLYQNQILDYETYIDTLNSFNIDTKSKDFKNLLDLFIKKSISFETFNKGIINIHNKS", "soluble fraction (log2)": 0.11},
      {"sequence": "HMQIIEVPYSEFLKKLESGQISEVSRDSYQIVFTDRSQPPIIYKTGLMEDPGLVDKMQEAGVTFTSP", "soluble fraction (log2)": 0.12},
      {"sequence": "HMSLDTASDKELLGLIVSEPIATRVLDAFRTLDATLFRTTPAELAAAAGVSSEHAQKIKAVAEIAARMLKP", "soluble fraction (log2)": -0.377},
      {"sequence": "HMQPLGHDLTERELDVLALMVTGMNNSEIADKLVVSRSTIKYHVSNILSKLQATSRTEAVAYALQQNLVH", "soluble fraction (log2)": -0.469}
    ]}
  ]
}
